According to PMC11136987 (2024):

Tests used:
[1] = biological target: recombinant full-length HAX-1 (UniProt O00165 1-279); experiment: BLI
[2] = biological target: recombinant full-length ASC (UniProt Q9ULZ3 1-195); experiment: BLI
Sequence of recombinant full-length ASC (Q9ULZ3 whole entry): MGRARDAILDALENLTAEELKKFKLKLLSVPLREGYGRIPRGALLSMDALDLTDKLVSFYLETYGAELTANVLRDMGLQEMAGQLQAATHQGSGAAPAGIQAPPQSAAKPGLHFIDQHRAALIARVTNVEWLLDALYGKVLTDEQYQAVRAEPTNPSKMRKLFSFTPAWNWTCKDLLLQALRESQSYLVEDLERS

Sequence of recombinant full-length HAX-1 (O00165 whole entry): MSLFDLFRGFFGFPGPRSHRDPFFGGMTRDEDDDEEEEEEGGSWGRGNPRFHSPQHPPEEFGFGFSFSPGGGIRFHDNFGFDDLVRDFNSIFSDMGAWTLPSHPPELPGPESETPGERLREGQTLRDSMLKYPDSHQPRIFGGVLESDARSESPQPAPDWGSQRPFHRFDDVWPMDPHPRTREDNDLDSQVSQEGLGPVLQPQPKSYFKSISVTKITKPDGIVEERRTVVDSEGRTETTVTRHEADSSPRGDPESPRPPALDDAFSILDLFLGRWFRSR

Kd [1]: 3.38 nM
Kd [2]: 7.33 nM
B1: recombinant partial NLRP3 1-536aa (domain or fragment)
chain: MKMASTRCKLARYLEDLEDVDLKKFKMHLEDYPPQKGCIPLPRGQTEKADHVDLATLMIDFNGEEKAWAMAVWIFAAINRRDLYEKAKRDEPKWGSDNARVSNPTVICQEDSIEEEWMGLLEYLSRISICKMKKDYRKKYRKYVRSRFQCIEDRNARLGESVSLNKRYTRLRLIKEHRSQQEREQELLAIGKTKTCESPVSPIKMELLFDPDDEHSEPVHTVVFQGAAGIGKTILARKMMLDWASGTLYQDRFDYLFYIHCREVSLVTQRSLGDLIMSCCPDPNPPIHKIVRKPSRILFLMDGFDELQGAFDEHIGPLCTDWQKAERGDILLSSLIRKKLLPEASLLITTRPVALEKLQHLLDHPRHVEILGFSEAKRKEYFFKYFSDEAQARAAFSLIQENEVLFTMCFIPLVCWIVCTGLKQQMESGKSLAQTSKTTTAVYVFFLSSLLQPRGGSQEHGLCAHLWGLCSLAADGIWNQKILFEESDLRNHGLQKADVSAFLRMNLFQKEVDCEKFYSFIHMTFQEFFAAMYYLL
modifications: biotinylated (sites not given)
